Assay results reported in PMC10465942, “N-acetylmuramic acid recognition by MurK kinase from the MurNAc auxotrophic oral pathogen Tannerella forsythia” (The Journal of Biological Chemistry, 2023).

B1: K1058 (Tannerella forsythia 92A2) (protein)
chain: MKLIAESGSTKTEWSLVEGEHLIQRVFTEGLNPFFQTRREISRSIRLGLPDSFFKRKLEQVFFYGAGCTSAEKKSVVEASLVAQFKTPAYVESDLLAAARGLFQHDSGIACILGTGSNSCFYDGHVIVKNVRAGGYILGDEGSGAALGKQFLSDVLKKLAPQVLIDDFFEKYDLTPHDVMDVVYNRPFPNRFLAEQSCFLADYLRLDYVKGLLLSNLRSFFLRNVMQYDYLNYPIRFVGSVAYNYADLLHQVGKEFGVELSVVEETPMGGLIKYHAFPPDDPES
notes: recombinant His6-tagged protein expressed in E. coli
B2: MurK (murein sugar kinase) (Tannerella forsythia 92A2) (protein)
chain: MILIADSGSTKTHWNVLDRGQVVGEIFTKGMNPFFQTPEEMGREIERTLLPQLNSNRFCEVHFFGAGCIPEKVPIVRNVLKGCLDVSSLIEVDTDMLAAAKASCGRSPGIVCIMGTGSNSCFYDGEKITANVSPLGFILGDEGSGAVLGKLLIGDLLKNQMGEELKEKFLRQYELTPANIIERVYRQPFPNRFLAGISPFLAENIEHPAIHSLVLNAFKSFLTRNVMQFDYTRYKAHFIGSVAYYYKDILEEAAAATGIRTGTIVRNPMEGLRTYYSTVAETV
notes: as for B1

Tests used:
purified protein [1] = substrate: CC(=O)N[C@@H]1[C@@H](O[C@H](C)C(=O)O)[C@H](O)[C@@H](CO)O[C@H]1O; test: purified protein; type: binding, Tannerella forsythia; details: active site, very similar to MurK MurNAc site; T69, R132, A133 differ
purified protein [2] = substrate: CC(=O)N[C@@H]1[C@@H](O[C@H](C)C(=O)O)[C@H](O)[C@@H](CO)O[C@H]1O; test: purified protein; design: species or system Tannerella forsythia; details: active site, MurNAc-binding site; hydrogen bonds to G67, D95, N119, D141; lactyl ether at S133, P134, L135

Row | Protein | Km (purified protein [1]) [µM] | kcat (purified protein [1]) [s⁻¹] | kcat/Km (purified protein [1]) [M⁻¹ s⁻¹] | Km (purified protein [2]) [µM] | kcat (purified protein [2]) [s⁻¹] | kcat/Km (purified protein [2]) [M⁻¹ s⁻¹]
1 | B1 | 28 ± 10 | 0.18 ± 0.01 | 6400 ± 2900 |  |  | 
2 | B2 |  |  |  | 180 ± 40 | 42 ± 4.2 | 230000 ± 56000
